Reference: patent publication US20230038638A1, “COMPLEMENT FACTOR I-RELATED COMPOSITIONS AND METHODS” (published 2023)

Key:
[1] = target: T1, human C4b (human) (UniProt P0C0L5)
T1 sequence: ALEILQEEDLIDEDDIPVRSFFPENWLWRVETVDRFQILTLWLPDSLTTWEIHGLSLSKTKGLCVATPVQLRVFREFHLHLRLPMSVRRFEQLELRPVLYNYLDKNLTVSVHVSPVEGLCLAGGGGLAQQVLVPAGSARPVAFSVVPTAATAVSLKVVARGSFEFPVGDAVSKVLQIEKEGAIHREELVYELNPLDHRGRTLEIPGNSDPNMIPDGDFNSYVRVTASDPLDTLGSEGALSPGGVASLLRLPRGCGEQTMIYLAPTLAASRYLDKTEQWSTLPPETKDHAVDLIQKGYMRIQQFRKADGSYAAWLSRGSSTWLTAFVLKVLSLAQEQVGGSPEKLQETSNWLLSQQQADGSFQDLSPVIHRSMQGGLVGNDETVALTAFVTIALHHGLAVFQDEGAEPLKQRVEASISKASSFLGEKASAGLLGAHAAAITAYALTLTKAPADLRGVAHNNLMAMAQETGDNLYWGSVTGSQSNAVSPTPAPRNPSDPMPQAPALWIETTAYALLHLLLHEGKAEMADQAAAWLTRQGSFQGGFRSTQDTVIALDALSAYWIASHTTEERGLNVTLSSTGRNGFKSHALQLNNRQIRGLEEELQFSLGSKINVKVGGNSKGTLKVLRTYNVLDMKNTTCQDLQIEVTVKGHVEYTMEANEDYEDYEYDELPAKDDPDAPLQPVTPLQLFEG

[2] = target: soluble human C3b (human) (UniProt P01024)

| Substance | C4b Screen Ref Fold (fold vs CFI-HSA wild type) [1] | iC3b Screen Ref Fold (fold vs CFI-HSA wild type) [2] |
| --- | --- | --- |
| CFI-HSA K424A (enzyme) | 0.26 | 0.87 |
| CFI-HSA K424D (enzyme) | 0.27 | 1.15 |
| CFI-HSA K424E (enzyme) | 0.23 | 1.08 |
| CFI-HSA K424F (enzyme) | 0.35 | 1.04 |
| CFI-HSA K424G (enzyme) | 0.32 | 1.44 |
| CFI-HSA K424H (enzyme) | 0.53 | 1.46 |
| CFI-HSA K424I (enzyme) | 0.28 | 1.48 |
| CFI-HSA K424L (enzyme) | 0.28 | 0.91 |
| CFI-HSA K424M (enzyme) | 0.33 | 0.95 |
| CFI-HSA K424N (enzyme) | 0.5 | 1.48 |
| CFI-HSA K424P (enzyme) | 0.33 | 1.05 |
| CFI-HSA K424Q (enzyme) | 0.47 | 1.27 |
| CFI-HSA K424R (enzyme) | 0.32 | 0.97 |
| CFI-HSA K424S (enzyme) | -0.1 | 0.29 |
| CFI-HSA K424T (enzyme) | 0.03 | 0.13 |
| CFI-HSA K424V (enzyme) | 0.29 | 0.89 |
| CFI-HSA K424W (enzyme) | 0.25 | 1.52 |
| CFI-HSA K424Y (enzyme) | 0.42 | 0.95 |
| CFI-HSA L73G (enzyme) | 0.17 | 0.3 |
| CFI-HSA L76G (enzyme) | 0.07 | 0.5 |
| CFI-HSA N531G; D425R; E530Y (enzyme) | 2.71 | 2.05 |

| Substance | C4b Screen Ref Fold (fold vs CFI-HSA wild type) [1] | iC3b Screen Ref Fold (fold vs CFI-HSA wild type) [2] |
| --- | --- | --- |
| CFI-HSA N531G; E457G; E461Q; R557A (enzyme) | 4.46 | 0.93 |
| CFI-HSA N531G; E457G; E461Q; R557K (enzyme) | 4.69 | 1.81 |
| CFI-HSA N531G; E457G; E461Q; ΔC-term (Δ558-PFISQYNV (SEQ ID NO: 14)-565) (enzyme) | 3.57 | 0.5 |
| CFI-HSA N531G; E530Y (enzyme) | 3.41 | 2.48 |
| CFI-HSA N531G; P535A; R557A (enzyme) | 3.98 | 0.57 |
| CFI-HSA N531G; P535A; R557K (enzyme) | 4.13 | 1.65 |
| CFI-HSA N531G; P535A; ΔC-term (Δ558-PFISQYNV (SEQ ID NO: 14)-565) (enzyme) | 0.96 | 0.24 |
| CFI-HSA P535G; E530Y (enzyme) | 0.11 | 0.22 |
| CFI-HSA P538G (enzyme) | 0.07 | -0.01 |
| CFI-HSA Q69G (enzyme) | 0.14 | 1.17 |
| CFI-HSA R327G (enzyme) | 0.26 | 0.5 |
| CFI-HSA R365A (enzyme) | 0.56 | 0.5 |
| CFI-HSA R365D (enzyme) | 0.02 | 0.03 |
| CFI-HSA R365E (enzyme) | -0.06 | 0.02 |
| CFI-HSA R365F (enzyme) | 0.23 | 0.64 |
| CFI-HSA R365G (enzyme) | 0.35 | 0.16 |
| CFI-HSA R365H (enzyme) | 0.31 | 0.43 |
| CFI-HSA R365I (enzyme) | 1.16 | 0.3 |
| CFI-HSA R365K (enzyme) | 0.39 | 1.01 |
| CFI-HSA R365L (enzyme) | 0.6 | 0.16 |
| CFI-HSA R365M (enzyme) | 0.13 | 0.43 |

| Substance | C4b Screen Ref Fold (fold vs CFI-HSA wild type) [1] | iC3b Screen Ref Fold (fold vs CFI-HSA wild type) [2] |
| --- | --- | --- |
| CFI-HSA R365N (enzyme) | 0.1 | 0.04 |
| CFI-HSA R365P (enzyme) | 0.18 | 0.07 |
| CFI-HSA R365Q (enzyme) | 0.18 | 0.64 |
| CFI-HSA R365S (enzyme) | 0.18 | 0.6 |
| CFI-HSA R365T (enzyme) | 0.96 | 0.56 |
| CFI-HSA R365V (enzyme) | 1.25 | 0.43 |
| CFI-HSA R365W (enzyme) | 0.24 | 0.89 |
| CFI-HSA R365Y (enzyme) | 0.63 | 0.74 |
| CFI-HSA R371G (enzyme) | 0.15 | 0.17 |
| CFI-HSA R456G (enzyme) | 0.04 | 0.03 |
| CFI-HSA R484G (enzyme) | 0.64 | 0.77 |
| CFI-HSA R557D (enzyme) | 0.5 | -0.01 |
| CFI-HSA R557E (enzyme) | 1.15 | -0.02 |
| CFI-HSA R557F (enzyme) | 2.13 | 0.12 |
| CFI-HSA R557G (enzyme) | 1.61 | 0.04 |
| CFI-HSA R557H (enzyme) | 2.44 | 0.11 |
| CFI-HSA R557I (enzyme) | 3.27 | 0.16 |
| CFI-HSA R557L (enzyme) | 2.27 | 0.15 |
| CFI-HSA R557M (enzyme) | 2.48 | 0.16 |
